# Assay results as given in publication PMC3047612 (The Journal of General Physiology, 2011).
# B1: GST N1–135 (domain or fragment, human, UniProt Q12809 1-135, looked up)
# chain: MPVRRGHVAPQNTFLDTIIRKFEGQSRKFIIANARVENCAVIYCNDGFCELCGYSRAEVMQRPCTCDFLHGPRTQRRAAAQIAQALLGAEERKVEIAFYRKDGSCFLCLVDVVPVKNEDGAVIMFILNFEVVMEK
# Target: H6 hERG 666–872 Flag (human, UniProt Q12809 666-872)
# Test: pull-down
# H6 hERG 666–872 Flag, sequence (Q12809 666-872): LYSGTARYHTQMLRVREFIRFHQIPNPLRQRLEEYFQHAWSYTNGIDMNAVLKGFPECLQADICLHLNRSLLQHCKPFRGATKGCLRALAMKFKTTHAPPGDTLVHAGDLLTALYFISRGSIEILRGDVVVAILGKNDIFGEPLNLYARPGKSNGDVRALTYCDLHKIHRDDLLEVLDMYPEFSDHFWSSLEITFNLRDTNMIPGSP
binder,measurement,value
B1,binding result,binds
